Results: paper PMC9482650, “Quantitative fragmentomics allow affinity mapping of interactomes” (Nature Communications, 2022)
Substitutions are numbered along the chain they refer to.

T1: APBA1_2, Q02410
T1 sequence (Q02410 742-832, limits assumed, looked up): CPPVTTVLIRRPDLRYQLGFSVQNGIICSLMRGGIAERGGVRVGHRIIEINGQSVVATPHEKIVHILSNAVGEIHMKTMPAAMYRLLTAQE

T2: APBA2_2, Q99767
T2 sequence (Q99767 654-744, limits assumed, looked up): T1 sequence (Q02410 742-832, limits assumed, looked up) with R10K, R15K, P59A, H65Q, I66A, A70S, Y84F, A89G

T3: APBA3_1, O96018
T3 sequence (O96018 389-490, limits assumed, looked up): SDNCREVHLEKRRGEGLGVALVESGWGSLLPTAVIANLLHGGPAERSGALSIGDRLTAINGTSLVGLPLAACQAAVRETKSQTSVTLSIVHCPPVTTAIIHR

T4: ARHGAP21, Q5T5U3
T4 sequence (Q5T5U3 45-169, limits assumed, looked up): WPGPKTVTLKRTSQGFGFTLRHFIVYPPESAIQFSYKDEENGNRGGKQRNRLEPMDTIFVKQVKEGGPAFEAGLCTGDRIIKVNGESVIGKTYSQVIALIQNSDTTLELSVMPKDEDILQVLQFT

T5: FRMPD1, Q5SYB0
T5 sequence (Q5SYB0 52-145, limits assumed, looked up): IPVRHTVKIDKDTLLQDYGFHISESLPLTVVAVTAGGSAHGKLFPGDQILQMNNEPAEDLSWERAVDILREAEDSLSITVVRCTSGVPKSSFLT

T6: HTRA4, P83105
T6 sequence (P83105 378-476, limits assumed, looked up): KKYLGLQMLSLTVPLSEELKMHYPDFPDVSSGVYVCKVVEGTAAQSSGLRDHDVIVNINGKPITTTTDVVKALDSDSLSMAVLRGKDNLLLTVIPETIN

T7: LIN7B, Q9HAP6
T7 sequence (Q9HAP6 88-185, limits assumed, looked up): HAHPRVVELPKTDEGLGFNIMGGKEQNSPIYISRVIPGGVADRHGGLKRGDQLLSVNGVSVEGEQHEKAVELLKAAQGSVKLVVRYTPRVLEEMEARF

T8: MPDZ_10, O75970
T8 sequence (O75970 1624-1722, limits assumed, looked up): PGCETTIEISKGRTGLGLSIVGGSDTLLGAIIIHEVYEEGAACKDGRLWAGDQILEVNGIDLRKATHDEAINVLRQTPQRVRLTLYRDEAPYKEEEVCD

T9: NHERF3_4, Q5T2W1
T9 sequence (Q5T2W1 373-468, limits assumed, looked up): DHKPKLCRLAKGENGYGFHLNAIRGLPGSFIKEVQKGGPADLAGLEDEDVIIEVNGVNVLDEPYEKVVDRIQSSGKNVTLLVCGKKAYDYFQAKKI

T10: PDZD7_3, Q9H5P4
T10 sequence (Q9H5P4 857-944, limits assumed, looked up): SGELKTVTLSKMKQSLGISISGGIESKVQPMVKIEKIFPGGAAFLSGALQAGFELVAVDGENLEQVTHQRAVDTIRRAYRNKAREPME

T11: PTPN13_1, Q12923
T11 sequence (Q12923 1088-1188, limits assumed, looked up): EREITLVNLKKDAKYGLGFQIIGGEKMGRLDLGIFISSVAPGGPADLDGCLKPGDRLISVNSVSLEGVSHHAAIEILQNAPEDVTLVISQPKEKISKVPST

T12: SIPA1L2, Q9P2F8
T12 sequence (Q9P2F8 945-1036, limits assumed, looked up): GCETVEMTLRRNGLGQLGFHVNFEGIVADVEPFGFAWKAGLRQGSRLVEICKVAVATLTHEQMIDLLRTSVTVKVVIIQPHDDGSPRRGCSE

T13: SYNJ2BP, P57105
T13 sequence (P57105 8-110, limits assumed, looked up): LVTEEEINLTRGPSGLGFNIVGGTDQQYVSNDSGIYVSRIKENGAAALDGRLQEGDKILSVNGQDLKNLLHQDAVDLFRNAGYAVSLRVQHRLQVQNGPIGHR


Legend:
Assay in all cases: holdup assay
Parameters in all cases: key: below the threshold = too weak to quantify, mostly under pKd 3.1 to 4
Conditions in all cases: plain residues with an end cap or a label only (N-terminal biotin on a linker: ado-ado)
[1] = target: T1, APBA1_2, Q02410
[2] = target: T2, APBA2_2, Q99767
[3] = target: T3, APBA3_1, O96018
[4] = target: T4, ARHGAP21, Q5T5U3
[5] = target: DLG1_1, Q12959
[6] = target: T5, FRMPD1, Q5SYB0
[7] = target: GIPC2, Q8TF65
[8] = target: GRASP, Q7Z6J2
[9] = target: GRIP2_3, Q9C0E4
[10] = target: GRIP2_7, Q9C0E4
[11] = target: T6, HTRA4, P83105
[12] = target: Inadl_2, Q8NI35
[13] = target: T7, LIN7B, Q9HAP6
[14] = target: MAGI2_4, Q86UL8
[15] = target: MAGI3_2, Q5TCQ9
[16] = target: MAST2, Q6P0Q8
[17] = target: T8, MPDZ_10, O75970
[18] = target: T9, NHERF3_4, Q5T2W1
[19] = target: PDLIM1, O00151
[20] = target: T10, PDZD7_3, Q9H5P4
[21] = target: T11, PTPN13_1, Q12923
[22] = target: T12, SIPA1L2, Q9P2F8
[23] = target: SNX27, Q96L92
[24] = target: T13, SYNJ2BP, P57105
[25] = target: TJP2_1, Q9UDY2
TJP2_1, Q9UDY2, sequence (Q9UDY2 24-128): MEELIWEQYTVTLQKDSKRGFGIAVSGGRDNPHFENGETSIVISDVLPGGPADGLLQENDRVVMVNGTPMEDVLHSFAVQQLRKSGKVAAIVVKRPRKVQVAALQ

GRASP, Q7Z6J2, sequence (Q7Z6J2 96-193): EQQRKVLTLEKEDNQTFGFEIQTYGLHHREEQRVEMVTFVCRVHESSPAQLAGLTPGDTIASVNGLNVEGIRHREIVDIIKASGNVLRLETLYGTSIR
GRIP2_3, Q9C0E4, sequence (Q9C0E4 238-339): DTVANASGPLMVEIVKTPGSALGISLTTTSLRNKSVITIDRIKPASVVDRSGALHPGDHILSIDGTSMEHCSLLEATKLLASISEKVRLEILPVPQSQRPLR
MAGI3_2, Q5TCQ9, sequence (Q5TCQ9 398-503): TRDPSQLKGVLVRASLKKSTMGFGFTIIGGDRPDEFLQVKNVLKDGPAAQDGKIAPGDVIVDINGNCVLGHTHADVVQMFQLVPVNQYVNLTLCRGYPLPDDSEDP
MAST2, Q6P0Q8, sequence (Q6P0Q8 1099-1202): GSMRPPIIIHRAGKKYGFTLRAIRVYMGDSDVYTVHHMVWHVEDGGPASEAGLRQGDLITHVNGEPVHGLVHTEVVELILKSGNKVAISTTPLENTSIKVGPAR
MAGI2_4, Q86UL8, sequence (Q86UL8 772-865): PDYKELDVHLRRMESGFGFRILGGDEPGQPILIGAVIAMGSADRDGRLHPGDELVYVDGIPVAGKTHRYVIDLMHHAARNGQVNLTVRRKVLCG
Inadl_2, Q8NI35, sequence (Q8NI35 238-335): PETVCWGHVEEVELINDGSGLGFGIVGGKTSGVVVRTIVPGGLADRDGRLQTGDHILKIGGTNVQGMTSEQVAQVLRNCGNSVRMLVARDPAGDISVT
GRIP2_7, Q9C0E4, sequence (Q9C0E4 934-1023): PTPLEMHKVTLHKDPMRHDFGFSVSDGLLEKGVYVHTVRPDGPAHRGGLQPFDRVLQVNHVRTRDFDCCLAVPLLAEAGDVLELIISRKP
GIPC2, Q8TF65, sequence (Q8TF65 112-203): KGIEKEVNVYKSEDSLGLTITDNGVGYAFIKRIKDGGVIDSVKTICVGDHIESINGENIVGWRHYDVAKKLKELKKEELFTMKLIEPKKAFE
PDLIM1, O00151, sequence (O00151 1-87): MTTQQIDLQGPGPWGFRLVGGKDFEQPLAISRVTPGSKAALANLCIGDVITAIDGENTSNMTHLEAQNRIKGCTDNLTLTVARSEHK

Binder | pKd [1] | pKd [2] | pKd [3] | pKd [4] | pKd [5] | pKd [6] | pKd [7] | pKd [8] | pKd [9] | pKd [10] | pKd [11] | pKd [12] | pKd [13] | pKd [14] | pKd [15] | pKd [16] | pKd [17] | pKd [18] | pKd [19] | pKd [20] | further results
SGDGKTSVWI [GJC1, P36383] | 4.44 | below the threshold | below the threshold | 3.58 | below the threshold | below the threshold | below the threshold | below the threshold | below the threshold | 4.37 | 4.64 | below the threshold | 3.74 | below the threshold | below the threshold | below the threshold | below the threshold | 3.52 | below the threshold | below the threshold | pKd [21]: below the threshold; pKd [22]: below the threshold; pKd [23]: 3.56; pKd [24]: below the threshold; pKd [25]: 4.82
GNDPDRGTSI [GRID2, O43424] | 3.65 | below the threshold | below the threshold | below the threshold | below the threshold | below the threshold | below the threshold | below the threshold | below the threshold | below the threshold | below the threshold | below the threshold | 3.69 | below the threshold | below the threshold | 4.45 | below the threshold | below the threshold | below the threshold | 4.1 | pKd [21]: below the threshold; pKd [22]: below the threshold; pKd [23]: below the threshold; pKd [24]: 4.72; pKd [25]: below the threshold

Second part, led by results:

pKd [1] | pKd [2] | pKd [3] | pKd [4] | pKd [5] | pKd [6] | pKd [7] | pKd [8] | pKd [9] | pKd [10] | pKd [11] | pKd [12] | pKd [13] | pKd [14] | pKd [15] | pKd [16] | pKd [17] | pKd [18] | pKd [19] | pKd [20] | Binder | further results
3.84 | below the threshold | below the threshold | 4.06 | 3.94 | below the threshold | below the threshold | 3.69 | below the threshold | below the threshold | below the threshold | below the threshold | below the threshold | 3.57 | below the threshold | 5.06 | below the threshold | below the threshold | below the threshold | 4.3 | EPAKETTTNV [SLC2A3, P11169] | pKd [21]: below the threshold; pKd [22]: below the threshold; pKd [23]: 4.95; pKd [24]: below the threshold; pKd [25]: below the threshold
3.5 | below the threshold | below the threshold | below the threshold | below the threshold | below the threshold | below the threshold | 3.56 | below the threshold | 3.86 | 4.05 | 3.56 | 3.88 | 4.3 | below the threshold | below the threshold | below the threshold | 3.51 | below the threshold | 4.03 | EFKQTSSFLV [JAM1, Q9Y624] | pKd [21]: below the threshold; pKd [22]: below the threshold; pKd [23]: below the threshold; pKd [24]: below the threshold; pKd [25]: below the threshold
below the threshold | below the threshold | below the threshold | below the threshold | below the threshold | below the threshold | below the threshold | below the threshold | below the threshold | 3.88 | 3.79 | below the threshold | 3.63 | below the threshold | below the threshold | below the threshold | below the threshold | below the threshold | below the threshold | below the threshold | DFKHTKSFII [JAM2, P57087] | pKd [21]: 3.52; pKd [22]: below the threshold; pKd [23]: below the threshold; pKd [24]: below the threshold; pKd [25]: below the threshold
